Substrate: O=C(O)[C@@H](CO)OP(=O)(O)O
Test: purified protein
Type: biochemical, Synechococcus elongatus
Conditions: 100 mM HEPES pH 8.0, 100 mM KCl, 1.0 mM MgCl2, 30°C, dehydration direction

B1: SeEN (Synechococcus elongatus enolase) (Synechococcus elongatus PCC 7942 = FACHB-805) (protein)
chain: MPDDYGTQIAEITAREILDSRGRPTVEAEVHLEDGSVGLAQVPSGASTGTFEAHELRDDDPSRYGGKGVQKAVENVSAIEDALIGLSALDQEGLDKAMIALDGTPNKKNLGANAILAVSLATAHAAATSLNLPLYRYLGGPLANVLPVPMMNVINGGAHADNNVDFQEFMIMPVGAPSFKEALRWGAEVFHALAKVLKDKGLATGVGDEGGFAPNLGSNKEALELLLTAIEAAGYKPGEQVALAMDVASSEFYKNGLYTCDGVSHEPAGMIGILADLVSQYPIVSIEDGLQEDDWSNWKTLTQQLGSTVQLVGDDLFVTNPDRLQSGIEQGVGNAVLIKLNQIGTLTETLRTIDLATRSGYRSVISHRSGETEDTTIADLAVATRAGQIKTGSLSRSERIAKYNRLLRIEAALGENALYAGAIGLGPKGR
notes: full length, synthetic codon-optimized gene in pET-42a(+), C-terminal … (8xHis) tag kept, E. coli Arctic Express (DE3); mainly monomer in gel filtration, dimer in PEP crystal, octamer predicted
- Km: 61 ± 4 µM
- kcat: 7.4 ± 0.1 s⁻¹
- kcat/Km: 120000 M⁻¹ s⁻¹

From article PMC8996150, “The structure of Synechococcus elongatus enolase reveals key aspects of phosphoenolpyruvate binding” (Acta Crystallographica. Section F, Structural Biology …, 2022)
